T1: human IL-2 receptor (human, UniProt P01589 22-272; P14784 27-551; P31785 23-369)
T1 sequence (looked up) 1: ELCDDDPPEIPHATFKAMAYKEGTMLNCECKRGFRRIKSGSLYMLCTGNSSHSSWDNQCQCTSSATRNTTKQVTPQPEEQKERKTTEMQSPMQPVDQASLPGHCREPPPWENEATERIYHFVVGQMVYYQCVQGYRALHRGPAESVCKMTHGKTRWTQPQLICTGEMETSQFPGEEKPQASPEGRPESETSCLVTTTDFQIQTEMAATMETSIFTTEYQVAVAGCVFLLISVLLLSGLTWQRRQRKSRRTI
T1 sequence (looked up) 2: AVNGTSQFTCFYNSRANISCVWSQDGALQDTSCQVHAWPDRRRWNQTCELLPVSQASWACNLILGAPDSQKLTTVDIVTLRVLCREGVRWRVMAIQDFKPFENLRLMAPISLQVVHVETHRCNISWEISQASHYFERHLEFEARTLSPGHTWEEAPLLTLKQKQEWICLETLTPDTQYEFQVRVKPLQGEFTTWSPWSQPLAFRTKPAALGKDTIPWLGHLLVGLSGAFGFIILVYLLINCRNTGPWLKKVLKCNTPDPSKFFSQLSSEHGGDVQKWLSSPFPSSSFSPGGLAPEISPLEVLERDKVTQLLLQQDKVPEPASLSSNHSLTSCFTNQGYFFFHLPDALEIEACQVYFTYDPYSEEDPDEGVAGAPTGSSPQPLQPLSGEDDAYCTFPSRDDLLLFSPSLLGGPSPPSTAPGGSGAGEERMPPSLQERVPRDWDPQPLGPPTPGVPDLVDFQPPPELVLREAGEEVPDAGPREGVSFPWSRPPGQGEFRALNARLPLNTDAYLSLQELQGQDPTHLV
T1 sequence (looked up) 3: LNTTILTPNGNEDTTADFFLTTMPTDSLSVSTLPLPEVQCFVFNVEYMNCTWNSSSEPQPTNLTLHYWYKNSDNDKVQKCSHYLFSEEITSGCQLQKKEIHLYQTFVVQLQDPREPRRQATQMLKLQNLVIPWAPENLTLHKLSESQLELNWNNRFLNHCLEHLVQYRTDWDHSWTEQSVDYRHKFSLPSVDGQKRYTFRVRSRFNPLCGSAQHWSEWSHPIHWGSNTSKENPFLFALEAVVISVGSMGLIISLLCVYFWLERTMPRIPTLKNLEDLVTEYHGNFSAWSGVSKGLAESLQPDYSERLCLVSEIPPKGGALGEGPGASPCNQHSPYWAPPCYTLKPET


Experiments:
Test in all cases: cell-based or functional assay
[1] = target: T2, human PD-1 overexpressed on HEK-Blue reporter cells (human, UniProt Q15116 25-288)
[2] = target: T1, human IL-2 receptor
[3] = target: T2, human PD-1 overexpressed on HEK-Blue …; remark: listed apart in the source
[4] = target: T1, human IL-2 receptor; remark: listed apart in the source
[5] = target: human IL-12 receptor complex (human, UniProt P42701 24-662; Q99665 24-862)
Chain of human IL-12 receptor complex (Q99665 24-862, chain 2 of 2, other chains not shown): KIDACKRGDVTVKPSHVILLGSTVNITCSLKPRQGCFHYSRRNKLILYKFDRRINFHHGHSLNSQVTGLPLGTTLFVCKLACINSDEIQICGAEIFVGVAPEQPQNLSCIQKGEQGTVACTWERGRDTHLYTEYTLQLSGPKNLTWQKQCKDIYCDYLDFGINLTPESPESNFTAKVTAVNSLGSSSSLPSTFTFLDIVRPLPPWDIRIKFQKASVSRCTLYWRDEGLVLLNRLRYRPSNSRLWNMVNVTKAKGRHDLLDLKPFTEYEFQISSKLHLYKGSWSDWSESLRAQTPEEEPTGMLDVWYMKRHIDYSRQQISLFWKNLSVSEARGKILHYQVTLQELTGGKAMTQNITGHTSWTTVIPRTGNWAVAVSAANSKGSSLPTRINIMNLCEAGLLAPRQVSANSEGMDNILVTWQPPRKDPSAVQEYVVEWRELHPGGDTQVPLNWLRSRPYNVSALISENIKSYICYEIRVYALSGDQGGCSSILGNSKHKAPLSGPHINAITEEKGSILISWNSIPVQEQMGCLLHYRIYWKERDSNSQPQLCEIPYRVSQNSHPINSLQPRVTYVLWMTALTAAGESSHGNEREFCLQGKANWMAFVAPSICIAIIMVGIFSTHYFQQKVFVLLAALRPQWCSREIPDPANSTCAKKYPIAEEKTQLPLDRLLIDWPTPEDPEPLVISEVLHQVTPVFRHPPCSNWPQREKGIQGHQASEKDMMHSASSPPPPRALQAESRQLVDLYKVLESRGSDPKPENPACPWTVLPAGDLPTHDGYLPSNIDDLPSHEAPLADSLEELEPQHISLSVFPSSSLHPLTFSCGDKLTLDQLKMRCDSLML

T2 sequence (Q15116 25-288): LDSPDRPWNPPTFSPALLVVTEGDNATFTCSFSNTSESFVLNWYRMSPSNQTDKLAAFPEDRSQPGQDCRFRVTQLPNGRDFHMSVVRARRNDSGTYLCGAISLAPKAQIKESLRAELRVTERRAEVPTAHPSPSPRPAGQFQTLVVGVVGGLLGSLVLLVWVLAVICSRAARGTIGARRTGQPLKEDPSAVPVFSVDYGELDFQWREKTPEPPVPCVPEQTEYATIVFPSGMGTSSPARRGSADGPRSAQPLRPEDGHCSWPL

IL-2 signal transduction, % of rIL2, HEK-IL-2-PD-1 cells [1] [%]	IL-2 signal transduction, % of rIL2, HEK-IL-2 cells [2] [%]	IL-2 signal transduction, % of rIL-2, HEK-IL-2-PD-1 cells [3] [%]	IL-12 signal transduction, % of rIL-12, HEK-IL-12-PD-1 cells [3] [%]	IL-2 signal transduction, % of rIL-2, HEK-IL-2 cells [4] [%]	IL-12 signal transduction, % of rIL-12, HEK-IL-12 cells [5] [%]	Binder
< 0.1	< 0.1					IL-2(L18R/Q22E/R38D/K43E/E61R/Q126T/S130R)/PD-L1(mut2)-Fc (Fc fusion) chain 1: FTVTVPKDLYVVEYGSNMTIECKFPVEKQLDLAALQVYWMMEDKNIIQFVHGEEDLKVQHSSYRQRARLLKDQLSLGNAALQITDVKLQDAGVYTCLIAYKGADYKRITVKVNAPYNKINQRILVVDPVTSEHELTCQAEGYPKAEVIWTSSDHQVLSGKTTTTNSKREEKLFNVTSTLRINTTTNEIFYCTFRRLDPEENHTAELVIPELPLAHPPNERGGGSGAPTSSSTKKTQLQLEHLRLDLEMILNGINNYKNPKLTDMLTFEFYMPKKATELKHLQCLERELKPLEEVLNLAQSKNFHLRPRDLISNINVIVLELKGSETTFMCEYADETATIVEFLNRWITFCTSIIRTLTGGGGSGGGDKTHTCPPCPAPEKKGGPSVFLFPPKPKDTLMISRTPEVTCVVVDVSHEDPEVKFNWYVDGVEVHNAKTKPREEQYNSTYRVVSVLTVLHQDWLNGKEYKCKVSNKALPAPIEKTISKAKGQPREPQVYVLPPSREEMTKNQVSLLCLVKGFYPSDIAVEWESNGQPENRYMTWPPVLDSDGSFFLYSKLTVDKSRWQQGNVFSCSVMHEALHNHYTQKSLSLSPGK chain 2: FTVTVPKDLYVVEYGSNMTIECKFPVEKQLDLAALQVYWMMEDKNIIQFVHGEEDLKVQHSSYRQRARLLKDQLSLGNAALQITDVKLQDAGVYTCLIAYKGADYKRITVKVNAPYNKINQRILVVDPVTSEHELTCQAEGYPKAEVIWTSSDHQVLSGKTTTTNSKREEKLFNVTSTLRINTTTNEIFYCTFRRLDPEENHTAELVIPELPLAHPPNERGGGGSGGGDKTHTCPPCPAPEDEGGPSVFLFPPKPKDTLMISRTPEVTCVVVDVSHEDPEVKFNWYVDGVEVHNAKTKPREEQYNSTYRVVSVLTVLHQDWLNGKEYKCKVSNKALPAPIEKTISKAKGQPREPQVYVYPPSREEMTKNQVSLTCLVKGFYPSDIAVEWESNGQPENNYKTTPPVLDEDGSFALVSKLTVDKSRWQQGNVFSCSVMHEALHNHYTQKSLSLSPGK
		20	25	2	< 0.2	IL-2(R38D/K43E/E61R/Q126T)/IL-12(E59A/F60A)/PD-L1(mut2)-Fc (Fc fusion) chain 1: FTVTVPKDLYVVEYGSNMTIECKFPVEKQLDLAALQVYWMMEDKNIIQFVHGEEDLKVQHSSYRQRARLLKDQLSLGNAALQITDVKLQDAGVYTCLIAYKGADYKRITVKVNAPYNKINQRILVVDPVTSEHELTCQAEGYPKAEVIWTSSDHQVLSGKTTTTNSKREEKLFNVTSTLRINTTTNEIFYCTFRRLDPEENHTAELVIPELPLAHPPNERGGGGSGGGIWELKKDVYVVELDWYPDAPGEMVVLTCDTPEEDGITWTLDQSSEVLGSGKTLTIQVKAAGDAGQYTCHKGGEVLSHSLLLLHKKEDGIWSTDILKDQKEPKNKTFLRCEAKNYSGRFTCWWLTTISTDLTFSVKSSRGSSDPQGVTCGAATLSAERVRGDNKEYEYSVECQEDSACPAAEESLPIEVMVDAVHKLKYENYTSSFFIRDIIKPDPPKNLQLKPLKNSRQVEVSWEYPDTWSTPHSYFSLTFCVQVQGKSKREKKDRVFTDKTSATVICRKNASISVRAQDRYYSSSWSEWASVPCSGGGGSGGGSGGGGSRNLPVATPDPGMFPCLHHSQNLLRAVSNMLQKARQTLEFYPCTSEEIDHEDITKDKTSTVEACLPLELTKNESCLNSRETSFITNGSCLASRKTSFMMALCLSSIYEDLKMYQVEFKTMNAKLLMDPKRQIFLDQNMLAVIDELMQALNFNSETVPQKSSLEEPDFYKTKIKLCILLHAFRIRAVTIDRVMSYLNASGGGGSGGGDKTHTCPPCPAPEDEGGPSVFLFPPKPKDTLMISRTPEVTCVVVDVSHEDPEVKFNWYVDGVEVHNAKTKPREEQYNSTYRVVSVLTVLHQDWLNGKEYKCKVSNKALPAPIEKTISKAKGQPREPQVYVYPPSREEMTKNQVSLTCLVKGFYPSDIAVEWESNGQPENNYKTTPPVLDEDGSFALVSKLTVDKSRWQQGNVFSCSVMHEALHNHYTQKSLSLSPGK chain 2: FTVTVPKDLYVVEYGSNMTIECKFPVEKQLDLAALQVYWMMEDKNIIQFVHGEEDLKVQHSSYRQRARLLKDQLSLGNAALQITDVKLQDAGVYTCLIAYKGADYKRITVKVNAPYNKINQRILVVDPVTSEHELTCQAEGYPKAEVIWTSSDHQVLSGKTTTTNSKREEKLFNVTSTLRINTTTNEIFYCTFRRLDPEENHTAELVIPELPLAHPPNERGGGSGAPTSSSTKKTQLQLEHLLLDLQMILNGINNYKNPKLTDMLTFEFYMPKKATELKHLQCLERELKPLEEVLNLAQSKNFHLRPRDLISNINVIVLELKGSETTFMCEYADETATIVEFLNRWITFCTSIISTLTGGGGSGGGDKTHTCPPCPAPEKKGGPSVFLFPPKPKDTLMISRTPEVTCVVVDVSHEDPEVKFNWYVDGVEVHNAKTKPREEQYNSTYRVVSVLTVLHQDWLNGKEYKCKVSNKALPAPIEKTISKAKGQPREPQVYVLPPSREEMTKNQVSLLCLVKGFYPSDIAVEWESNGQPENRYMTWPPVLDSDGSFFLYSKLTVDKSRWQQGNVFSCSVMHEALHNHYTQKSLSLSPGK
		35	19	4	< 0.2	IL-2(L18R/Q22E/R38D/K43E/E61R)/IL-12(E59A/F60A)/PD-L1(mut2)-Fc (Fc fusion) chain 1: FTVTVPKDLYVVEYGSNMTIECKFPVEKQLDLAALQVYWMMEDKNIIQFVHGEEDLKVQHSSYRQRARLLKDQLSLGNAALQITDVKLQDAGVYTCLIAYKGADYKRITVKVNAPYNKINQRILVVDPVTSEHELTCQAEGYPKAEVIWTSSDHQVLSGKTTTTNSKREEKLFNVTSTLRINTTTNEIFYCTFRRLDPEENHTAELVIPELPLAHPPNERGGGGSGGGIWELKKDVYVVELDWYPDAPGEMVVLTCDTPEEDGITWTLDQSSEVLGSGKTLTIQVKAAGDAGQYTCHKGGEVLSHSLLLLHKKEDGIWSTDILKDQKEPKNKTFLRCEAKNYSGRFTCWWLTTISTDLTFSVKSSRGSSDPQGVTCGAATLSAERVRGDNKEYEYSVECQEDSACPAAEESLPIEVMVDAVHKLKYENYTSSFFIRDIIKPDPPKNLQLKPLKNSRQVEVSWEYPDTWSTPHSYFSLTFCVQVQGKSKREKKDRVFTDKTSATVICRKNASISVRAQDRYYSSSWSEWASVPCSGGGGSGGGSGGGGSRNLPVATPDPGMFPCLHHSQNLLRAVSNMLQKARQTLEFYPCTSEEIDHEDITKDKTSTVEACLPLELTKNESCLNSRETSFITNGSCLASRKTSFMMALCLSSIYEDLKMYQVEFKTMNAKLLMDPKRQIFLDQNMLAVIDELMQALNFNSETVPQKSSLEEPDFYKTKIKLCILLHAFRIRAVTIDRVMSYLNASGGGGSGGGDKTHTCPPCPAPEDEGGPSVFLFPPKPKDTLMISRTPEVTCVVVDVSHEDPEVKFNWYVDGVEVHNAKTKPREEQYNSTYRVVSVLTVLHQDWLNGKEYKCKVSNKALPAPIEKTISKAKGQPREPQVYVYPPSREEMTKNQVSLTCLVKGFYPSDIAVEWESNGQPENNYKTTPPVLDEDGSFALVSKLTVDKSRWQQGNVFSCSVMHEALHNHYTQKSLSLSPGK chain 2: FTVTVPKDLYVVEYGSNMTIECKFPVEKQLDLAALQVYWMMEDKNIIQFVHGEEDLKVQHSSYRQRARLLKDQLSLGNAALQITDVKLQDAGVYTCLIAYKGADYKRITVKVNAPYNKINQRILVVDPVTSEHELTCQAEGYPKAEVIWTSSDHQVLSGKTTTTNSKREEKLFNVTSTLRINTTTNEIFYCTFRRLDPEENHTAELVIPELPLAHPPNERGGGSGAPTSSSTKKTQLQLEHLRLDLEMILNGINNYKNPKLTDMLTFEFYMPKKATELKHLQCLERELKPLEEVLNLAQSKNFHLRPRDLISNINVIVLELKGSETTFMCEYADETATIVEFLNRWITFCQSIISTLTGGGGSGGGDKTHTCPPCPAPEKKGGPSVFLFPPKPKDTLMISRTPEVTCVVVDVSHEDPEVKFNWYVDGVEVHNAKTKPREEQYNSTYRVVSVLTVLHQDWLNGKEYKCKVSNKALPAPIEKTISKAKGQPREPQVYVLPPSREEMTKNQVSLLCLVKGFYPSDIAVEWESNGQPENRYMTWPPVLDSDGSFFLYSKLTVDKSRWQQGNVFSCSVMHEALHNHYTQKSLSLSPGK
